Test results: IntAct's records for PubMed 30814734

B1: BTB/POZ domain-containing protein KCTD16 (Homo sapiens), Q68DU8 (parent)
chain: MALSGNCSRYYPREQGSAVPNSFPEVVELNVGGQVYFTRHSTLISIPHSLLWKMFSPKRDTANDLAKDSKGRFFIDRDGFLFRYILDYLRDRQVVLPDHFPEKGRLKREAEYFQLPDLVKLLTPDEIKQSPDEFCHSDFEDASQGSDTRICPPSSLLPADRKWGFITVGYRGSCTLGREGQADAKFRRVPRILVCGRISLAKEVFGETLNESRDPDRAPERYTSRFYLKFKHLERAFDMLSECGFHMVACNSSVTASFINQYTDDKIWSSYTEYVFYREPSRWSPSHCDCCCKNGKGDKEGESGTSCNDLSTSSCDSQSEASSPQETVICGPVTRQTNIQTLDRPIKKGPVQLIQQSEMRRKSDLLRTLTSGSRESNMSSKKKAVKEKLSIEEELEKCIQDFLKIKIPDRFPERKHPWQSELLRKYHL
partner: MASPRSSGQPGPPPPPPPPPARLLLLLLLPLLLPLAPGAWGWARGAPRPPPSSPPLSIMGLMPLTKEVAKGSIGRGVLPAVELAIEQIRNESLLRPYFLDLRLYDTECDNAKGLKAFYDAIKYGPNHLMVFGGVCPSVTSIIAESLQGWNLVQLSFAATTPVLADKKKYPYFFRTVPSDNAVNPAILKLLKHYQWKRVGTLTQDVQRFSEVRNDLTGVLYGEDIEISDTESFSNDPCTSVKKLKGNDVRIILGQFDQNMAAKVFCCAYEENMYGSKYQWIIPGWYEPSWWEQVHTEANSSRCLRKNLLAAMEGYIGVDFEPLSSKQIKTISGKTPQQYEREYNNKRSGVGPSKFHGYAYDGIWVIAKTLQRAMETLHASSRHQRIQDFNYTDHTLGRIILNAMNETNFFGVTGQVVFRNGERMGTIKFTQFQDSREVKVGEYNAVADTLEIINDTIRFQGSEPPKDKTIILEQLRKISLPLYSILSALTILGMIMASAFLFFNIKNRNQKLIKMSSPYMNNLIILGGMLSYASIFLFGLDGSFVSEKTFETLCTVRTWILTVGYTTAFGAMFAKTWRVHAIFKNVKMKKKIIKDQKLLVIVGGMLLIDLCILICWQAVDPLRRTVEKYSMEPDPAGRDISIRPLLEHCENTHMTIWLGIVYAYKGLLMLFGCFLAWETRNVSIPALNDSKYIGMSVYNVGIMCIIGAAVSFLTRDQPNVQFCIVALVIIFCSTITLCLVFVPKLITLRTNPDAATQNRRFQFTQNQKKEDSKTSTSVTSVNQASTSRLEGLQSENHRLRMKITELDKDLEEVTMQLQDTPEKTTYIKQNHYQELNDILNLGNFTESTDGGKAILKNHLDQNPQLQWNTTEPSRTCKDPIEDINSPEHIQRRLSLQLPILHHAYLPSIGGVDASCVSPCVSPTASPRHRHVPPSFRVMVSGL

Variants of: B1
Details: with gabr2_human GABBR2, O75899

Variant	effect of a mutation on the interaction
F80A	disrupting interaction strength
